Two molecules from PMC11293393, “ChAHP2 and ChAHP control diverse retrotransposons by complementary activities” (Genes & Development, 2024) can be followed below.

B1: Strep-HP1β (natural protein)
chain: not shown
notes: HP1β (CBX1), human, full length, amino acid residues 1-185; pFast-Bac-derived vector; also called full-length human HP1β; source: Trichoplusia ni High5 cells (baculovirus), coexpressed with His-ADNP2; in lysate for the pull-down, Strep-Tactin eluate for SEC-MALS; not shown: Strep tag II, N-terminal, kept
B2: His-ADNP2 (natural protein, human, UniProt Q6IQ32 1-1131, looked up)
chain: MFQIPVENLDNIRKVRKKVKGILVDIGLDSCKELLKDLKGFDPGEKYFHNTSWGDVSLWEPSGKKVRYRTKPYCCGLCKYSTKVLTSFKNHLHRYHEDEIDQELVIPCPNCVFASQPKVVGRHFRMFHAPVRKVQNYTVNILGETKSSRSDVISFTCLKCNFSNTLYYSMKKHVLVAHFHYLINSYFGLRTEEMGEQPKTNDTVSIEKIPPPDKYYCKKCNANASSQDALMYHILTSDIHRDLENKLRSVISEHIKRTGLLKQTHIAPKPAAHLAAPANGSAPSAPAQPPCFHLALPQNSPSPAAGQPVTVAQGAPGSLTHSPPAAGQSHMTLVSSPLPVGQNSLTLQPPAPQPVFLSHGVPLHQSVNPPVLPLSQPVGPVNKSVGTSVLPINQTVRPGVLPLTQPVGPINRPVGPGVLPVSPSVTPGVLQAVSPGVLSVSRAVPSGVLPAGQMTPAGQMTPAGVIPGQTATSGVLPTGQMVQSGVLPVGQTAPSRVLPPGQTAPLRVISAGQVVPSGLLSPNQTVSSSAVVPVNQGVNSGVLQLSQPVVSGVLPVGQPVRPGVLQLNQTVGTNILPVNQPVRPGASQNTTFLTSGSILRQLIPTGKQVNGIPTYTLAPVSVTLPVPPGGLATVAPPQMPIQLLPSGAAAPMAGSMPGMPSPPVLVNAAQSVFVQASSSAADTNQVLKQAKQWKTCPVCNELFPSNVYQVHMEVAHKHSESKSGEKLEPEKLAACAPFLKWMREKTVRCLSCKCLVSEEELIHHLLMHGLGCLFCPCTFHDIKGLSEHSRNRHLGKKKLPMDYSNRGFQLDVDANGNLLFPHLDFITILPKEKLGEREVYLAILAGIHSKSLVPVYVKVRPQAEGTPGSTGKRVSTCPFCFGPFVTTEAYELHLKERHHIMPTVHTVLKSPAFKCIHCCGVYTGNMTLAAIAVHLVRCRSAPKDSSSDLQAQPGFIHNSELLLVSGEVMHDSSFSVKRKLPDGHLGAEDQRHGEEQPPILNADAAPGPEKVTSVVPFKRQRNESRTEGPIVKDEALQILALDPKKYEGRSYEEKKQFLKDYFHKKPYPSKKEIELLSSLFWVWKIDVASFFGKRRYICMKAIKNHKPSVLLGFDMSELKNVKHRLNFEYEP
notes: ADNP2, human, full length, amino acid residues 1-1131; pFast-Bac-derived vector; also called full-length human ADNP2; source: Trichoplusia ni High5 cells (baculovirus), coexpressed with Strep-HP1β; in lysate for the pull-down, Strep-Tactin eluate for SEC-MALS; not shown: His6, N-terminal, kept

The target of experiment [1] is B2. Put plainly: pull-down; High5 cell pools (His-ADNP2 + Strep-HP1β coexpressed; His-CHD4 separately) mixed and lysed; cleared lysate over Strep-Tactin sepharose, 50 mM Tris pH 7.5, 300 mM NaCl, 0.1% Triton X-100; eluted with 2.5 mM desthiobiotin; SDS-PAGE and Coomassie staining. Conditions: partners not purified.
Experiment [2] has as its target T1, His-CHD4 (human, UniProt Q14839 1-1912).
T1 construct: CHD4, human, full length, amino acid residues 1-1912; pAC8-derived vector; also called full-length human CHD4; source: Trichoplusia ni High5 cells (baculovirus), expressed separately; in lysate for the pull-down, Strep-Tactin eluate for SEC-MALS; not shown: His6, N-terminal, kept
Put plainly: SEC-MALS; Strep-Tactin eluate, ~4-5 mg/mL, Superose 6 Increase 10/300 GL, 50 mM HEPES-OH pH 7.4, 150 mM NaCl, 0.5 mM TCEP. Particulars: both partners purified. For orientation: Size exclusion chromatography separates by hydrodynamic size, large species first.

T1 sequence (Q14839 whole entry, the tested form may be a part): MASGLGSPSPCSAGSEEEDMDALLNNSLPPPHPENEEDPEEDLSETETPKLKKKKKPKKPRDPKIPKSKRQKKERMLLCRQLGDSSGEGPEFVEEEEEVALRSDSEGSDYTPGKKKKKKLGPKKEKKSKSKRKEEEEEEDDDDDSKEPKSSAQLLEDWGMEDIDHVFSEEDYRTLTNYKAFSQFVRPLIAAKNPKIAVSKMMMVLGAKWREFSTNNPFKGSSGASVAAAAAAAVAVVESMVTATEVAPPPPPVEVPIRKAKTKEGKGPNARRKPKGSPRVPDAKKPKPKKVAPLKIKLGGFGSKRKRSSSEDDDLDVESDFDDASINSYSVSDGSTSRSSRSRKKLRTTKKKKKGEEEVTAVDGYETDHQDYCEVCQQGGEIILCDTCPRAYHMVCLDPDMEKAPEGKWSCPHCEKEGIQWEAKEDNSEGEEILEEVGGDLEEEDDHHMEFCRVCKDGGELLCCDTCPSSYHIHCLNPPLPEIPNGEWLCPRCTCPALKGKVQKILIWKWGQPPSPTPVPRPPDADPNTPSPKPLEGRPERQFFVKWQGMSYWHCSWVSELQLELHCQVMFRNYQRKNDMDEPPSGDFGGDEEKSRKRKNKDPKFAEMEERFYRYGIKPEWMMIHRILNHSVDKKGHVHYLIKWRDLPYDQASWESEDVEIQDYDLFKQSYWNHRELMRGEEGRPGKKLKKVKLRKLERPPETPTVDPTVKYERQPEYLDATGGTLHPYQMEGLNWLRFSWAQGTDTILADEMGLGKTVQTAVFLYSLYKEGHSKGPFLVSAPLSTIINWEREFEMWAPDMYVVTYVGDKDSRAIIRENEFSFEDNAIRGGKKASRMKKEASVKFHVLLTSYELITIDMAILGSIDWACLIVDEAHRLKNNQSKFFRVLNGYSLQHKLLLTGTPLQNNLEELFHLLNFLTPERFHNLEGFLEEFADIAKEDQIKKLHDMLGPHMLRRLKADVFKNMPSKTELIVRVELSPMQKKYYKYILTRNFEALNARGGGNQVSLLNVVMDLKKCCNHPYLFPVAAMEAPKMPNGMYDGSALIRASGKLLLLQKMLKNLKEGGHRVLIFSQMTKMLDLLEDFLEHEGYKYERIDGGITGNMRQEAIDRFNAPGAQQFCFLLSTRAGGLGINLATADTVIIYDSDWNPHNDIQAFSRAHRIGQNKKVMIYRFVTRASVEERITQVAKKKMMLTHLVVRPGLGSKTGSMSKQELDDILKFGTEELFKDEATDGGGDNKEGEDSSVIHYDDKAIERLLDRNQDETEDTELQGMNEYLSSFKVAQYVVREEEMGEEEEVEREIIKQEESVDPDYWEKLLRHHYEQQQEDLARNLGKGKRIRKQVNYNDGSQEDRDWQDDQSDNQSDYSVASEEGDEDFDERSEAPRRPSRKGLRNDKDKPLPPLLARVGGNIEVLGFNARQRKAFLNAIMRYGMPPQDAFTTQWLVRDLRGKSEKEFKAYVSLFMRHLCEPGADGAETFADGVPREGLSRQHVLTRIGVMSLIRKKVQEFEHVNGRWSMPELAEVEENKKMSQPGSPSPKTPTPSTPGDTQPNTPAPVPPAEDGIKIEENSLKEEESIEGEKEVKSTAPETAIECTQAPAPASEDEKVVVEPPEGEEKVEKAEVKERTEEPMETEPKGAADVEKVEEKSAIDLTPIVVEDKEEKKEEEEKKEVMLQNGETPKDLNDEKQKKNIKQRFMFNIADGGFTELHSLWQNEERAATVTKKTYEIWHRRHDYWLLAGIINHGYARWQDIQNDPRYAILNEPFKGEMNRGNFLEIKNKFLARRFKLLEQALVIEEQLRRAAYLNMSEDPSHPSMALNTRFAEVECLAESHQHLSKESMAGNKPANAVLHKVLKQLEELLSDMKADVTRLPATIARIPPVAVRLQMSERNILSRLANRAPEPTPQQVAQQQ

Regarding B1, the binding result in experiment [1] and in experiment [2] was “binds” in each case.
For the molecule B2, the binding result in experiment [2] is reported as “binds”.
